{"source": "paper PMC9328677", "binders": {"B1": {"name": "49-bp DNA, centre of 601 (dsDNA)", "DNA 1": "GCACCGCTTAAACGCACGTACGCGCTGTCCCCCGCGTTTTAACCGCCAA", "DNA 2": "TTGGCGGTTAAAACGCGGGGGACAGCGCGTACGTGCGTTTAAGCGGTGC"}}, "biological_target": "T1, APLF acidic domain (APLFAD) WT (Homo sapiens, UniProt Q8IW19 450-511)", "T1 sequence": "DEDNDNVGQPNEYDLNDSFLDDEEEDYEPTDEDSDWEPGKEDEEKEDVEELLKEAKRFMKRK", "assay": "EMSA (native PAGE, cross-linked); APLFAD alone, no histones; Native PAGE EMSA with cross-linking; EMSA and NAQ buffer, salt and temperature not in material (general assay buffer 25 mM NaPi pH 7.0, 300 mM NaCl)", "conditions": "protein: recombinant; tags: TAMRA-labelled; His-GST or His-SUMO fusion for expression (TEV cleaved; SUMO may be retained); chain copies: 2; blunt"}
{"binder": "B1", "values": [{"measurement": "binding result", "value": "no binding"}]}
